In US20190359687A1 (Bayer, published 2019):
Changes are numbered by the printed parent chain. No end group written: not given here. *: point of attachment. Biotin = O=C1N[C@H]2[C@H](CS[C@H]2CCCCC(=O)*)N1

T1: GP5-9 (human, biotin at the N-terminus)
T1 construct: GP5 with alanine at position 9 (T9A), already in the entry
T1 peptide: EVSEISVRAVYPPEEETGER

T2: GP5-13 (human, biotin at the N-terminus)
T2 construct: GP5 with alanine at position 13 (P13A), already in the entry
T2 peptide: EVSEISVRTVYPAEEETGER

T3: GP5-19 (human, biotin at the N-terminus)
T3 construct: GP5 with alanine at position 19 (E19A), already in the entry
T3 peptide: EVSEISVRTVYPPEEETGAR

T4: GP5-10 (human, biotin at the N-terminus)
T4 construct: GP5 with alanine at position 10 (V10A), already in the entry
T4 peptide: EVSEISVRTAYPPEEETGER

T5: GP5-15 (human, biotin at the N-terminus)
T5 construct: GP5 with alanine at position 15 (E15A), already in the entry
T5 peptide: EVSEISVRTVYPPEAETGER

T6: GP5-17 (human, biotin at the N-terminus)
T6 construct: GP5 with alanine at position 17 (T17A), already in the entry
T6 peptide: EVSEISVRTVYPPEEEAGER

T7: GP5-16 (human, biotin at the N-terminus)
T7 construct: GP5 with alanine at position 16 (E16A), already in the entry
T7 peptide: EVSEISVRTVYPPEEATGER

T8: GP5-8 (human, biotin at the N-terminus)
T8 construct: GP5 with alanine at position 8 (R8A), already in the entry
T8 peptide: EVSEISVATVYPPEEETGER

T9: GP5-7 (human, biotin at the N-terminus)
T9 construct: GP5 with alanine at position 7 (V7A), already in the entry
T9 peptide: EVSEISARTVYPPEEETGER

T10: GP5-20 (human, biotin at the N-terminus)
T10 construct: GP5 with alanine at position 20 (R20A), already in the entry
T10 peptide: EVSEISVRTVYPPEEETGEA

T11: GP5-1 (human, biotin at the N-terminus)
T11 construct: GP5 with alanine at position 1 (E1A), already in the entry
T11 peptide: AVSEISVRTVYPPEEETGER

T12: GP5-5 (human, biotin at the N-terminus)
T12 construct: GP5 with alanine at position 5 (I5A), already in the entry
T12 peptide: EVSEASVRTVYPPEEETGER

T13: GP5-11 (human, biotin at the N-terminus)
T13 construct: GP5 with alanine at position 11 (Y11A), already in the entry
T13 peptide: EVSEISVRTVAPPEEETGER

T14: GP5-3 (human, biotin at the N-terminus)
T14 construct: GP5 with alanine at position 3 (S3A), already in the entry
T14 peptide: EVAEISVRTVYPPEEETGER

T15: GP5-18 (human, biotin at the N-terminus)
T15 construct: GP5 with alanine at position 18 (G18A), already in the entry
T15 peptide: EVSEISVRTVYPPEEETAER

T16: GP5-6 (human, biotin at the N-terminus)
T16 construct: GP5 with alanine at position 6 (S6A), already in the entry
T16 peptide: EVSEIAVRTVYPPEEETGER

T17: GP5-14 (human, biotin at the N-terminus)
T17 construct: GP5 with alanine at position 14 (E14A), already in the entry
T17 peptide: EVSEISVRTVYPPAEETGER

T18: GP5-2 (human, biotin at the N-terminus)
T18 construct: GP5 with alanine at position 2 (V2A), already in the entry
T18 peptide: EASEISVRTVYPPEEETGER

T19: GP5-4 (human, biotin at the N-terminus)
T19 construct: GP5 with alanine at position 4 (E4A), already in the entry
T19 peptide: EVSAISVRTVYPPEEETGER

T20: GP5-12 (human, biotin at the N-terminus)
T20 construct: GP5 with alanine at position 12 (P12A), already in the entry
T20 peptide: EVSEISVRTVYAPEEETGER

T21: GP10 (human)
T21 peptide: Biotin-TVYPPEEE

T22: GP7 (human)
T22 peptide: Biotin-SVRTVYPP

T23: GP11 (human)
T23 peptide: Biotin-VYPPEEET

T24: GP13 (human)
T24 peptide: Biotin-PPEEETGE

T25: GP12 (human)
T25 peptide: Biotin-YPPEEETG

T26: human glycophorin A in the red blood cell membrane (human, UniProt P02724 20-150)
T26 construct: whole, on cells; used for intact RBC, isolated RBC membranes and transfected cells; the assay field tells which; also called GPA; hGPA
T26 sequence (looked up): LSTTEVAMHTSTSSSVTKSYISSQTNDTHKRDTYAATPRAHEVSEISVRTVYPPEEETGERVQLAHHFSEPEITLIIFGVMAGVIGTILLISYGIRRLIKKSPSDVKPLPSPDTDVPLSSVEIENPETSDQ

B1: TPP-7790 Fab (Fab, V domains shown)
VH: EVQLVQSGAEVKKPGASVKVSCKASGYTFTTYAIHWVRQAPGQGLEWMGYINPSSGYTRYNPKFKHRVTMTRDKSTSTAYMELRSLRSDDTAVYYCWTGTRDYWGQGTTVTVSS
VL: DIQLTQSPSFLSASVGDRVTITCRASSSVRYIYWFQQKPGKAPKLLIYATSFLQSGVPSRFSGSGSGTEYTLTISSLQPEDFATYYCHQRNSFPYTFGQGTKLEIK
notes: Tested as Fab with a 6xHIS tag
B2: TPP-7792 Fab (Fab, V domains shown)
VH: B1 VH with H66G
VL: B1 VL with L53R
notes: as for B1
B3: TPP-7792 scFv (scFv)
scFv: DIQLTQSPSFLSASVGDRVTITCRASSSVRYIYWFQQKPGKAPKLLIYATSFRQSGVPSRFSGSGSGTEYTLTISSLQPEDFATYYCHQRNSFPYTFGQGTKLEIKEVQLVQSGAEVKKPGASVKVSCKASGYTFTTYAIHWVRQAPGQGLEWMGYINPSSGYTRYNPKFKGRVTMTRDKSTSTAYMELRSLRSDDTAVYYCWTGTRDYWGQGTTVTVSS
notes: as m101 (tag, order, linker)

How the values were obtained:
GP5-9 = target: T1, GP5-9; test: ELISA, biotin-peptide on streptavidin plate, Fab 0.5 ug/ml
GP5-13 = target: T2, GP5-13; test: as above
GP5-19 = target: T3, GP5-19; test: as above
GP5-10 = target: T4, GP5-10; test: as above
GP5-15 = target: T5, GP5-15; test: as above
GP5-17 = target: T6, GP5-17; test: as above
GP5-16 = target: T7, GP5-16; test: as above
GP5-8 = target: T8, GP5-8; test: as above
GP5-7 = target: T9, GP5-7; test: as above
GP5-20 = target: T10, GP5-20; test: as above
GP5-1 = target: T11, GP5-1; test: as above
GP5-5 = target: T12, GP5-5; test: as above
GP5-11 = target: T13, GP5-11; test: as above
GP5-3 = target: T14, GP5-3; test: as above
GP5-18 = target: T15, GP5-18; test: as above
GP5-6 = target: T16, GP5-6; test: as above
GP5-14 = target: T17, GP5-14; test: as above
GP5-2 = target: T18, GP5-2; test: as above
GP5-4 = target: T19, GP5-4; test: as above
GP5-12 = target: T20, GP5-12; test: as above
GP10 = target: T21, GP10; test: peptide ELISA, summary of Table 23
Description: (§1) These peptides were attached to the surface of a streptavidin coated plate via a biotin moiety that was present at the N-terminus of each peptide.

GP7 = target: T22, GP7; test: peptide ELISA, summary of Table 23
Description: as §1

GP11 = target: T23, GP11; test: peptide ELISA, summary of Table 23
Description: as §1

GP13 = target: T24, GP13; test: peptide ELISA, summary of Table 23
Description: as §1

GP12 = target: T25, GP12; test: peptide ELISA, summary of Table 23
Description: as §1

[1] = target: T26, human glycophorin A in the red blood …; test: FACS on RBC of huGPA/HemA transgenic mice (muTGRBC), 1E+6 RBC/mL, scFv titrated

| Binder | binding signal (ELISA) (GP5-9) | binding signal (ELISA) (GP5-13) | binding signal (ELISA) (GP5-19) | binding signal (ELISA) (GP5-10) | binding signal (ELISA) (GP5-15) | binding signal (ELISA) (GP5-17) | binding signal (ELISA) (GP5-16) | binding signal (ELISA) (GP5-8) | binding signal (ELISA) (GP5-7) | binding signal (ELISA) (GP5-20) | binding signal (ELISA) (GP5-1) | binding signal (ELISA) (GP5-5) | binding signal (ELISA) (GP5-11) | binding signal (ELISA) (GP5-3) | binding signal (ELISA) (GP5-18) | binding signal (ELISA) (GP5-6) | binding signal (ELISA) (GP5-14) | binding signal (ELISA) (GP5-2) | binding signal (ELISA) (GP5-4) | binding signal (ELISA) (GP5-12) | also measured |
| --- | --- | --- | --- | --- | --- | --- | --- | --- | --- | --- | --- | --- | --- | --- | --- | --- | --- | --- | --- | --- | --- |
| B1 | 6810 | 6570 | 6470 | 5910 | 6720 | 6870 | 6540 | 6790 | 6700 | 6440 | 6210 | 6270 | 1 | 6680 | 6400 | 6520 | 1280 | 6360 | 6540 | 6450 | binding result (GP10): no binding; binding result (GP7): no binding; binding result (GP11): no binding; binding result (GP13): no binding; binding result (GP12): no binding |
| B2 | 7270 | 6960 | 6980 | 6210 | 7250 | 7410 | 6680 | 6700 | 6690 | 7170 | 6800 | 7400 | 2 | 7370 | 7150 | 6660 | 2670 | 6700 | 6630 | 6790 | binding result (GP10): no binding; binding result (GP7): no binding; binding result (GP11): no binding; binding result (GP13): no binding; binding result (GP12): no binding |
| B3 |  |  |  |  |  |  |  |  |  |  |  |  |  |  |  |  |  |  |  |  | EC50 (read off the curve) [1]: ~20 µg/mL |
